Assays:
[1] = molecular target: T1, Peptide antigen CNIKHVPGGGSVQIVYKPVD (human, conjugated to BSA in the ELISA (to KLH via the N-terminal cysteine in the immunogen)); assay: ELISA screening of hybridoma clones
T1 construct: also called original immunization peptide; immunizing Tau peptide
T1 peptide: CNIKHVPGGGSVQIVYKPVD
Protocol: One month after the boost immunization, antisera were collected from the mice and antibody titers assessed by ELISA to measure immunoreactivity against the original immunizing Tau peptide and both 2N4R and 1N3R recombinant Tau proteins. Briefly, either 150 ng of Peptide antigen conjugated to BSA or 50 ng of 2N4R or 1N3R recombinant Tau protein (Enzo Life Sciences, cat. no's BML-SE321 and BML-SE323 respectively) were used to coat each well of a 96-well plate (Costar cat. no. 2797) in 10 mM phosphate buffer, pH 7.0 at 37° C. for 1 hour. Plates were blocked in a final concentration of 1% BSA diluted in PBS at room temperature for 30 minutes. […] Following additional wash steps, antibody binding was detected by addition of 3,3′,5,5′-Tetramethylbenzidine (TMB) substrate. The enzymatic reaction was stopped with an equal volume of 2M H₂SO₄ and the well optical density was determined using a platereader at wavelength 450 nm.
Once mice with a high antibody titer had been determined, cells were isolated from the medial iliac lymph nodes and fused using polyethylene glycol with mouse myeloma SP2 cells to generate hybridomas. […] To give an approximation of relative binding, culture supernatant that was positive in the peptide ELISA and either recombinant protein, 2N4R or 1N3R, or both, were then evaluated in a competitive ELISA system. […]

[2] = molecular target: T2, P301S mutant human 2N4R Tau, recombinant full length (human, UniProt P10636 2-758); assay: SPR; KD on P301S-2N4R Tau against KD on wild type 2N4R Tau
T2 construct: The equivalent P301S mutant of 2N4R Tau; also called P301S-2N4R Tau; P301S Tau
Protocol: (§1) Purified antibodies from hybridomas were captured by protein A/G immobilized on a CM5 sensor chip (GE Healthcare). The wild type and P301S Tau proteins were then injected onto the sensor chip at five different concentrations and the affinity (equilibrium dissociation constant, KD) was calculated according to the manufacturer's instruction.

[3] = molecular target: T3, Human Tau 2N4R, wild type, recombinant full length (human, UniProt P10636 2-758); assay: SPR BIAcore T100, mAb captured by protein A/G, Tau injected
T3 construct: Full length 2N4R isoform; monomer in SPR and ELISA; heparin-induced aggregates or seeds in the functional assays; also called Tau441; Tau-441
Protocol: (§2) Kinetic analysis of the interaction of the anti-Tau mouse monoclonal antibodies generated in Example 1 with human wild type Tau (2N4R) and the equivalent P301S mutant Tau protein was conducted using a BIAcore™ T100 instrument. Recombinant human full length Tau proteins were expressed in E. coli and then purified by Cellufine™ phosphate affinity chromatography followed by ammonium sulfate precipitation and reverse phase HPLC chromatography.
as §1

[4] = molecular target: T2, P301S mutant human 2N4R Tau, …; assay: as above
Protocol: as §2, §1

[5] = molecular target: T4, HVPGG site of Tau (15-mer array peptides containing HVPGG) (human); assay: peptide microarray; HVPGG site of the fourth repeat region against HKPGG (repeat region 3)
T4 peptide: HVPGG
Protocol: (§3) The diluted antibody was incubated on the chip for 16 hours at 4° C. with shaking at 140 rpm. Primary antibody was removed and the chip was washed in PBS (pH 7.4)/0.05% Tween 20. Wash buffer was removed and goat anti-mouse IgG (H+L) DyLight™680 (1:5000) and an anti-HA tag DyLight™ 800 (1:2000) in the same buffer as the primary antibody was then incubated for 45 minutes at room temperature on the chip. Detection antibody was removed and the chip was washed once again as previously. Fluorescence images were acquired on the LI-COR Odyssey™ Imaging System and the microarray data was finally analyzed using the PepSlide™ Analyser software.

[6] = molecular target: T4, HVPGG site of Tau (15-mer array …); assay: peptide microarray; HVPGG site of the fourth repeat region against HQPGG (repeat region 1)
Protocol: as §3

[7] = molecular target: T4, HVPGG site of Tau (15-mer array …); assay: peptide microarray; HVPGG site of the second repeat region against HQPGG (repeat region 1)
Protocol: as §3

T2 sequence (P10636 other isoform, or with tags, fused parts or gaps P301S P301S limits assumed): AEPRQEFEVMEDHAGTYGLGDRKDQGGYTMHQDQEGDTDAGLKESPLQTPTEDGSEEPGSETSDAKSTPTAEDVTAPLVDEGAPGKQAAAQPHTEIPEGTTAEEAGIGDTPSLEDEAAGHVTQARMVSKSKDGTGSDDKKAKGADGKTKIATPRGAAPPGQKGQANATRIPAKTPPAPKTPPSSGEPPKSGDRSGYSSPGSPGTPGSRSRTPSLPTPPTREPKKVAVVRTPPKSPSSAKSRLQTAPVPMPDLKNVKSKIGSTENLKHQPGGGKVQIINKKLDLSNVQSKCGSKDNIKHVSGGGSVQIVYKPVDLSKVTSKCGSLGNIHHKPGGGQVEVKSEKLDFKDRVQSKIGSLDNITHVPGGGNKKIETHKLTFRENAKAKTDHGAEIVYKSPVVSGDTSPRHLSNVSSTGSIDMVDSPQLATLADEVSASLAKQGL
T3 sequence (P10636 other isoform, or with tags, fused parts or gaps limits assumed): as the sequence (P10636 other isoform, or with tags, fused parts or gaps P301S P301S limits assumed) above, with S300P counted along it

binding result [1]: binds
Fold difference [2]: 11 fold
Kd [3]: 52 pM
Kd [4]: 570 pM
fold preference in binding (average signal intensities) [5]: 33 fold
fold preference in binding (average signal intensities) [6]: 35 fold
fold preference in binding (average signal intensities) [7]: 41 fold
B1: murine 7G6 antibody (antibody, mouse IgG2b, V domains shown)
VH: QVQLLQPGAELVKPGASVIMSCKASGYTFTTYWITWVKQRPGQGLEWIGDIYPGSSICNYNEKFKSKATLTVDTSSSTAYMQLNSLTSEDSAVYYCAREDGYDAWFAYWGQGTLVTVSA
VL: DVLMTQTPLSLPVSLGDQASISCRSSQSILHSNGNTYLEWYLQKPGQSPKLLICKVSNRFSGVPDRFSGSGSGTDFTLKISRVEAEDLGVYYCFQGSHVPFTFGSGTKLEIK
notes: Mouse IgG2b, kappa, purified from hybridoma; also called ms7G6; mouse 7G6

From US20190112365A1 (EISAI R AND D MANAGEMENT, published 2019)
